{"source": "paper PMC3720794", "binders": {"B1": {"name": "PvuIITopD/PvuIIBottom (O6MeG 18 bp duplex) (dsDNA)", "DNA 1": "GCCCGGCCAGCTGCAGTT", "DNA 2": "AACTGCAGCTGGCCGGGC", "modifications": "O6-methylguanine at position 13 of strand 1 (printed as X), paired with C"}}, "test_in_all_cases": "pre-steady-state rapid-quench kinetics", "key": {"MGMT G156C": {"biological_target": "MGMT G156C (Homo sapiens, UniProt P16455 1-207, G156C)", "sequence (P16455 whole entry G156C)": "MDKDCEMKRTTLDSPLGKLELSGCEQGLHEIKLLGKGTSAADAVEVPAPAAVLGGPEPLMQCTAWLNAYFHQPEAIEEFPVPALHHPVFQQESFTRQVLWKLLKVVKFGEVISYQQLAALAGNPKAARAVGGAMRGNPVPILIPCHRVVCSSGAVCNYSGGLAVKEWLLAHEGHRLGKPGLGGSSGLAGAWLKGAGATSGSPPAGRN"}, "MGMT G132R": {"biological_target": "MGMT G132R (Homo sapiens, UniProt P16455 1-207, G132R)", "sequence (P16455 whole entry G132R)": "as the sequence (P16455 whole entry G156C) above, with G132R, C156G counted along it"}, "MGMT WT": {"biological_target": "MGMT WT (Homo sapiens, UniProt P16455 1-207)", "sequence (P16455 whole entry)": "as the sequence (P16455 whole entry G156C) above, with C156G counted along it"}}}
{"binder": "B1", "values": [{"measurement": "Kd", "setting": "MGMT G156C", "result": "240 ± 60", "unit": "nM"}, {"measurement": "Kd", "setting": "MGMT G132R", "result": "14 ± 3", "unit": "nM"}, {"measurement": "Kd", "setting": "MGMT WT", "result": "6.2 ± 0.7", "unit": "nM"}]}
